Laboratory results as given in the supplement of paper PMC6757056.
± gives the standard deviation of the averaged measurements.

B1: library; a variant is named by its letters at N, in order (parent)
chain: GCUGUCACCGGUGUAUUACCCUAGUGGUCGACCGGUCUGAUGAGUCUNNNNNNAGACGAAACAGC

Legend:
hypoxanthine [1] = variants of: B1; assay: FACS-Seq fitted mean relative fluorescence mCherry/BFP without ligand (log10 relative fluorescence); ligand: hypoxanthine (xanthine aptamer); higher = higher reporter protein expression; details: HEK293T, ligand present: no
Summary of the method: (§1)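 Cells were sorted into 6 bins on the mCherry/BFP ratio after 48 h with or without ligand. These were enriched HEK293T cells transduced by lentivirus with a ribozyme-switch mCherry reporter plus an EF1α-BFP marker. Fluorescence was obtained by fitting a normal distribution to sequencing-derived bin counts. Counts came from MiSeq sequencing of PCR-amplified, barcoded genomic DNA, binned by log10(mCherry/BFP), with means scaled to five spiked-in control ribozymes.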

hypoxanthine [2] = variants of: B1; assay: normalized RNA/DNA level with ligand (relative to sTRSVctl = 100) (log10 (% of sTRSVctl)); ligand: hypoxanthine (xanthine aptamer); higher = less ribozyme self-cleavage, higher mRNA level; details: ligand concentration (+) RNA-Seq: 5 mM, HEK293T, reporter: mCherry (pCS4076), ligand present: yes
Method: (§2)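 Hammerhead (sTRSV) ribozyme switch libraries with a ligand aptamer grafted on stem I and a randomized N4-6 loop II, cloned into the 3' UTR of mCherry and transiently transfected into HEK293T cells; RNA-Seq 72 h post transfection with ligand added 1 h before transfection; RNA read count / plasmid DNA read count normalized to the non-cleaving sTRSVctl (x100), log10; sequences with >100 DNA reads. FACS-Seq: lentiviral library sorted into 6 bins after 48 h ligand, log-normal fit mean of mCherry/BFP scaled to controls. Printed sequences are partial switch sequences.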

hypoxanthine [3] = variants of: B1; assay: normalized RNA/DNA level without ligand (relative to sTRSVctl = 100) (log10 (% of sTRSVctl)); ligand: hypoxanthine (xanthine aptamer); higher = less ribozyme self-cleavage, higher mRNA level; details: HEK293T, reporter: mCherry (pCS4076), ligand present: no
Method: as §2

hypoxanthine [4] = variants of: B1; assay: FACS-Seq fitted mean relative fluorescence mCherry/BFP with ligand (log10 relative fluorescence); ligand: hypoxanthine (xanthine aptamer); ligand concentration (+) FACS-Seq: 5 mM; higher = higher reporter protein expression; details: HEK293T, ligand present: yes
Summary of the method: as §1

Variant	FACS-Seq fitted mean (log10) (hypoxanthine [1])	normalized RNA/DNA level with ligand (log10) (hypoxanthine [2])	normalized RNA/DNA level without ligand (log10) (hypoxanthine [3])	FACS-Seq fitted mean (log10) (hypoxanthine [4])
GCUGUCACCGGUGUAUUACCCUAGUGGUCGACCGGUCUGAUGAGUCUUACGGAAGACGAAACAGC [UACGGA]	0.543 ± 0.045	1.927 ± 0.0098	1.59 ± 0.03	0.703 ± 0.039
GCUGUCACCGGUGUAUUACCCUAGUGGUCGACCGGUCUGAUGAGUCUGACGCUAGACGAAACAGC [GACGCU]	0.261 ± 0.12	1.94 ± 0.037	1.893 ± 0.0077	0.508 ± 0.048
GCUGUCACCGGUGUAUUACCCUAGUGGUCGACCGGUCUGAUGAGUCUGACGAAAGACGAAACAGC [GACGAA]	0.408 ± 0.047	1.9 ± 0.056	1.7 ± 0.0095	0.566 ± 0.012
GCUGUCACCGGUGUAUUACCCUAGUGGUCGACCGGUCUGAUGAGUCUGACGAUAGACGAAACAGC [GACGAU]	0.412 ± 0.021	1.91 ± 0.027	1.75 ± 0.023	0.672 ± 0.053
GCUGUCACCGGUGUAUUACCCUAGUGGUCGACCGGUCUGAUGAGUCUGACGAGAGACGAAACAGC [GACGAG]	0.184 ± 0.028	1.76 ± 0.056	1.31 ± 0.017	0.597 ± 0.026
GCUGUCACCGGUGUAUUACCCUAGUGGUCGACCGGUCUGAUGAGUCUGACGACAGACGAAACAGC [GACGAC]	-0.384 ± 0.063	1.9292 ± 0.0013	1.67 ± 0.017	-0.465 ± 0.092
GCUGUCACCGGUGUAUUACCCUAGUGGUCGACCGGUCUGAUGAGUCUUACGCAAGACGAAACAGC [UACGCA]	-0.76 ± 0.081	1.924 ± 0.0096	1.82 ± 0.019	-0.297 ± 0.075
GCUGUCACCGGUGUAUUACCCUAGUGGUCGACCGGUCUGAUGAGUCUCACGAAAGACGAAACAGC [CACGAA]	0.226 ± 0.02	1.87 ± 0.02	1.72 ± 0.037	0.363 ± 0.022
GCUGUCACCGGUGUAUUACCCUAGUGGUCGACCGGUCUGAUGAGUCUAACGCUAGACGAAACAGC [AACGCU]	0.624 ± 0.015	1.94 ± 0.032	1.85 ± 0.023	0.548 ± 0.11
GCUGUCACCGGUGUAUUACCCUAGUGGUCGACCGGUCUGAUGAGUCUAACGCGAGACGAAACAGC [AACGCG]	-0.0882 ± 0.017	1.812 ± 0.011	1.33 ± 0.08	0.162 ± 0.024
GCUGUCACCGGUGUAUUACCCUAGUGGUCGACCGGUCUGAUGAGUCUAACGCCAGACGAAACAGC [AACGCC]	0.0156 ± 0.023	1.94 ± 0.048	1.84 ± 0.037	0.1 ± 0.21
GCUGUCACCGGUGUAUUACCCUAGUGGUCGACCGGUCUGAUGAGUCUUACGAUAGACGAAACAGC [UACGAU]	0.105 ± 0.066	1.92 ± 0.041	1.715 ± 0.015	-0.543 ± 0.12
GCUGUCACCGGUGUAUUACCCUAGUGGUCGACCGGUCUGAUGAGUCUUACGAAAGACGAAACAGC [UACGAA]	0.0406 ± 0.024	1.9122 ± 0.00026	1.69 ± 0.013	0.191 ± 0.012
GCUGUCACCGGUGUAUUACCCUAGUGGUCGACCGGUCUGAUGAGUCUUACGAGAGACGAAACAGC [UACGAG]	0.145 ± 0.0054	1.88 ± 0.069	1.4 ± 0.058	0.382 ± 0.014
GCUGUCACCGGUGUAUUACCCUAGUGGUCGACCGGUCUGAUGAGUCUAACGGCAGACGAAACAGC [AACGGC]	0.644 ± 0.088	1.95 ± 0.02	1.816 ± 0.012	0.696 ± 0.074
GCUGUCACCGGUGUAUUACCCUAGUGGUCGACCGGUCUGAUGAGUCUAACGGAAGACGAAACAGC [AACGGA]	0.375 ± 0.033	1.917 ± 0.01	1.62 ± 0.035	0.525 ± 0.041
GCUGUCACCGGUGUAUUACCCUAGUGGUCGACCGGUCUGAUGAGUCUAACGAGAGACGAAACAGC [AACGAG]	0.131 ± 0.0019	1.75 ± 0.031	1.22 ± 0.062	0.553 ± 0.084
GCUGUCACCGGUGUAUUACCCUAGUGGUCGACCGGUCUGAUGAGUCUAACGACAGACGAAACAGC [AACGAC]	0.305 ± 0.007	1.94 ± 0.02	1.79 ± 0.028	0.279 ± 0.064
GCUGUCACCGGUGUAUUACCCUAGUGGUCGACCGGUCUGAUGAGUCUAACGAAAGACGAAACAGC [AACGAA]	-0.1232 ± 0.00029	1.88 ± 0.068	1.67 ± 0.042	-0.425 ± 0.21
GCUGUCACCGGUGUAUUACCCUAGUGGUCGACCGGUCUGAUGAGUCUCACCUUAGACGAAACAGC [CACCUU]	-0.395 ± 0.03	1.97 ± 0.03	1.87 ± 0.044	-0.0406 ± 0.045
GCUGUCACCGGUGUAUUACCCUAGUGGUCGACCGGUCUGAUGAGUCUCACGCUAGACGAAACAGC [CACGCU]	0.785 ± 0.049	1.93 ± 0.034	1.87 ± 0.021	0.774 ± 0.079
